T1: human wild type Sortilin on S18-HEK cells (human, UniProt Q99523 78-831)
T1 sequence: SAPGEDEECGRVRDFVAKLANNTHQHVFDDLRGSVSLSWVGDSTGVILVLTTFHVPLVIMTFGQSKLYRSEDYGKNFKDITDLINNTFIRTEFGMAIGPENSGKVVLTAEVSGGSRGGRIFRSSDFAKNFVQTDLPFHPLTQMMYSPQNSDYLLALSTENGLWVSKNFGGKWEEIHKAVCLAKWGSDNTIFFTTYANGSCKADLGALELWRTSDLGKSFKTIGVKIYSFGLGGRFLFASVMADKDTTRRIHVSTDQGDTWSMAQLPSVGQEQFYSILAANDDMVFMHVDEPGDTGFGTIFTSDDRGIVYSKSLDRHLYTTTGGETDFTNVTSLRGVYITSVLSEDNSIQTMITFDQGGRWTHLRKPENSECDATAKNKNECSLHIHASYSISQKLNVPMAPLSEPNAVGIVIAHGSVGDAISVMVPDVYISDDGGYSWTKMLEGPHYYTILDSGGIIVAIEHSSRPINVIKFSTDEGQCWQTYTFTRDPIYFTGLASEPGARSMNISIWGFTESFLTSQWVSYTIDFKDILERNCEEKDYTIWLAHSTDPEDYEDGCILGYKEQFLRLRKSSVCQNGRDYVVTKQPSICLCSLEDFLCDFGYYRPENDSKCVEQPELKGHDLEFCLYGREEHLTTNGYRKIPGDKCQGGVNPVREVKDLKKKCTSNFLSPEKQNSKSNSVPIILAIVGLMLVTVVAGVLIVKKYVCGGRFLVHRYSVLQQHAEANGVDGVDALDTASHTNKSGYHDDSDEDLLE

B1: 849 (antibody, V domains shown)
VH: EVQLLESGGGLVQPGGSLRLSCAASGFTFNTFAMNWVRQAPGKGLEWVSAISGSGGSTYYADSVKGRFTISRDNSKNTLYLQMNSLRAEDTAVYYCAALVRGVRDAFDIWGQGTMVTVSS
VL: not shown
B2: 1276 (antibody, V domains shown)
VH: EVQLLESGGGLVQPGGSLRLSCAASGFTFNTFAMNWVRQAPGKGLEWVSAITGSGGSTYYADSVKGRFTISRDNSKNTLYLQMNSLRAEDTAVYYCATPITVVRGVSAFDIWGQGTMVTVSS
VL: not shown
B3: 1289 (antibody, V domains shown)
VH: EVQLLESGGGLVQPGGSLRLSCAASGFTFSSFAMSWVRQAPGKGLEWVSAISGSGGSTYYADSVKGRFTISRDNSKNTLSLQMNSLRAEDTAVYYCATPITLVRGVGAFDIWGQGTMVTVSS
VL: not shown
B4: 924 (antibody, V domains shown)
VH: QVQLQESGPGLVKPSQTLSLTCTVSGGSISSGNYYWNWIRQHPGKGLEWIGYIYYSGSTYYNPSLKSRVTISVDTSKNQFSLKLNSVTSADTAVYYCAALITSQNFFFDYWGQGTLVTVSS
VL: not shown
B5: 093-01 (antibody, V domains shown)
VH: VVQLLESGGGLVQPGGSLRLSCAASGFTFSSYAMSWVRQAPGKGLEWVSAISGSGGSTYYADSVKGRFTISRDNSMHTLFLQINSLRAEDTAVYYCVAIAAAGTNYFDYWGQGTLVTVSS
VL: not shown
B6: 093-05 (antibody, V domains shown)
VH: VVQLLESGGGLVQPGGSLRLSCAASGFTFSSYAMSWVRQAPGKGLEWVSAISGSGGSTYYADSVKGRFTISRDNSMHTLFLQINSLRAEDTAVYYCVAIAAAGTNYFDYWGQGTLVTVSS
VL: not shown
B7: 044 (antibody, V domains shown)
VH: EVQLLESGGGLVQPGGSLRLSCAASGFTFSSYAMSWVRQAPGKGLEWVSAISGSGGNTYYADSVKGRSTISRDNSKNTLYLQMNSLRAEDTAVYYCASMVRGVFINFDYWGQGTLVTVSS
VL: not shown
B8: 088 (antibody, V domains shown)
VH: EVQLLESGGGLVQPGGSLRLSCAASGFTFSTFAMSWVRQAPGKGLEWVSAISGSGGGTYYADSVKGRFTISRDNSKNTLYLQMNSLRAEDTAVYYCATYIVATIADAFDIWGQGTMVTVSS
VL: not shown
B9: 562 (antibody, V domains shown)
VH: EVQLLESGGGLVQPGGSLRLSCAASGFTFSTFAMSWVRQAPGKGLEWVSAISGSGGSTYYADSVKGRFTISRDNSENTLYLQMNSLRAEDTAVYYCASPITVVRGEAFDIWGQGTMVTVSS
VL: not shown
B10: 566 (antibody, V domains shown)
VH: EVQLLESGGGLVQPGGSLRLSCVASGFTFSTFAMSWVRQAPGKGLEWVSAISGSGGSTYYADSVRGRFTVSRDNSKNTLYLQMNSLRAEDTAVYYCASPITMVRGEAFDIWGQGTMVTVSS
VL: not shown
B11: 531 (antibody, V domains shown)
VH: EVQLLESGGGLVQPGGSLRLSCAASGFTFSRYVMSWVRQAPGKGLEWVSTISGSGGSTYYADSVKGRFTISRDNSKNTLFLQMNSLRAEDTAVYYCAEGAFGAFDIWGQGTMVTVSS
VL: not shown

Target: T1, human wild type Sortilin on S18-HEK …
Assay: cell-based or functional assay

Row | extracellular PGRN in medium of Sortilin over-expressing HEK cells (ELISA), % of untreated control | Binder
1 | 149% | B1
2 | 163% | B2
3 | 117% | B3
4 | 125% | B4
5 | 116% | B5
6 | 140% | B6
7 | 166% | B7
8 | 121% | B8
9 | 139% | B9
10 | 139% | B10
11 | 140% | B11
